In article PMC8777244:

How the values were obtained:
[1] = biological target: MBP-fused human Nox5β dehydrogenase domain residues 665-719 (human) (UniProt Q96PH1); test: ITC
[2] = biological target: MBP-fused human Nox5β dehydrogenase domain residues 528-719 (human) (UniProt Q96PH1); test: ITC
[3] = biological target: MBP-fused human Nox5β dehydrogenase domain residues 584-719 (human) (UniProt Q96PH1); test: ITC
[4] = biological target: human Nox5β CaM-binding domain (CMBD) peptide, residues 671-689 (human); test: ITC
[5] = biological target: MBP-fused human Nox5β dehydrogenase domain residues 605-719 (human) (UniProt Q96PH1); test: ITC
[6] = biological target: N-terminal Dansyl-labeled human Nox5β CMBD peptide (human); test: other fluorescence titration
[7] = biological target: human Nox5β CaM-binding domain (CMBD) peptide, residues 671-689 (human); test: other fluorescence titration
[8] = biological target: human Nox5β CaM-binding domain (CMBD) peptide, residues 671-689 (human); test: fluorescence polarisation

Chain of MBP-fused human Nox5β dehydrogenase domain residues 605-719 (human) (Q96PH1 651-765): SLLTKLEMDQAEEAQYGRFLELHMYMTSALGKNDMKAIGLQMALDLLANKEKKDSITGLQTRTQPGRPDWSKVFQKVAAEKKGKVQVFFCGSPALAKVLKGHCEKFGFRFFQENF
Chain of MBP-fused human Nox5β dehydrogenase domain residues 528-719 (human) (Q96PH1 574-765): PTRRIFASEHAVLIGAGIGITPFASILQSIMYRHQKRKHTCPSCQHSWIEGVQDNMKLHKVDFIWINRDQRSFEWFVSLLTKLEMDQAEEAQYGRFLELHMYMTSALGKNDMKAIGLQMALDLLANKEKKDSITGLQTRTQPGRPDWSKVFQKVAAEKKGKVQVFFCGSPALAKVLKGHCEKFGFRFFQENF
Chain of MBP-fused human Nox5β dehydrogenase domain residues 665-719 (human) (Q96PH1 711-765): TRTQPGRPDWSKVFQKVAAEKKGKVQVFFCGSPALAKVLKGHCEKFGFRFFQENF
Chain of MBP-fused human Nox5β dehydrogenase domain residues 584-719 (human) (Q96PH1 630-765): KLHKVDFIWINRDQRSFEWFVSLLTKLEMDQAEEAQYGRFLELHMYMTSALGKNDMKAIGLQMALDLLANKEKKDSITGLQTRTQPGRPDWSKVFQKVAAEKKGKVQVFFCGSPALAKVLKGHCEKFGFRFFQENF

- dH [1]: -8.21 kcal/mol
- stoichiometry N ([peptide]/Protein]) [1]: 1.15
- dH [2]: -19 kcal/mol
- stoichiometry N ([peptide]/Protein]) [2]: 1.18
- dH [3]: -16.8 kcal/mol
- stoichiometry N ([peptide]/Protein]) [3]: 1.04
- dH (per mole protein) [4]: -7.85 kcal/mol
- stoichiometry N [4]: 0.521
- stoichiometry N ([peptide]/Protein]) [4]: 1.79
- dH [5]: -14.8 kcal/mol
- stoichiometry N ([peptide]/Protein]) [5]: 1.15
- stoichiometry N ([peptide]/Protein]) [6]: 2.11
- stoichiometry N ([peptide]/Protein]) [7]: 2.1
- stoichiometry N ([peptide]/Protein]) [8]: 1.91
Substance: recombinant 6xHis-tagged calmodulin (from UniProt P0DP23 1-149) (natural protein)
